Reference: article PMC7320145, “Substrate Channeling via a Transient Protein-Protein Complex: The case of D-Glyceraldehyde-3-Phosphate Dehydrogenase and L-Lactate Dehydrogenase” (Scientific Reports, 2020)

B1: baker's yeast D-glyceraldehyde-3-phosphate dehydrogenase (enzyme)
chain: VRVAINGFGRIGRLVMRIALSRPNVEVVALNDPFITNDYAAYMFKYDSTHGRYAGEVSHDDKHIIVDGKKIATYQERDPANLPWGSSNVDIAIDSTGVFKELDTAQKHIDAGAKKVVITAPSSTAPMFVMGVNEEKYTSDLKIVSNASCTTNCLAPLAKVINDAFGIEEGLMTTVHSLTATQKTVDGPSHKDWRGGRTASGNIIPSSTGAAKAVGKVLPELQGKLTGMAFRVPTVDVSVVDLTVKLNKETTYDEIKKVVKAAAEGKLKGVLGYTEDAVVSSDFLGDSHSSIFDASAGIQLSPKFVKLVSWYDNEYGYSTRVVDLVEHVAKA
modifications: Homotetramer, apo-enzyme preparation from yeast (NADH added in the binding assays). The isozyme is taken as TDH3 because the cited PDB 3PYM is GAPDH 3. The natural preparation may contain minor …
B2: porcine heart L-lactate dehydrogenase (enzyme)
chain: not shown
notes: L-lactate dehydrogenase from porcine heart (phLDH), tetramer; also called phLDH; PhLDH

How the values were obtained:
[1] = biological target: B2; assay: AUC; sedimentation velocity of a mixture of phLDH and byGAPDH, each 6 μM; 50 mM Tris/HCl, pH = 7.2, 1 mM EDTA, 0.5 mM DTT; scans at 280 nm, 7 hours at 40,000 x g; fit with SEDFIT to a one-component model and compared with a Claverie simulation of 10% association; conditions: both partners purified
[2] = biological target: T1, rabbit muscle D-glyceraldehyde-3-phosphate dehydrogenase (rabbit, UniProt P46406 2-333); assay: cell-based or functional assay
[3] = biological target: B1; assay: cell-based or functional assay
[4] = biological target: T1, rabbit muscle …; assay: cell-based or functional assay; remark: listed apart in the source
[5] = biological target: B1; assay: cell-based or functional assay; remark: listed apart in the source
[6] = biological target: the molecule itself; assay: AUC; sedimentation velocity of each enzyme alone at 6 μM; scans at 280 nm, 7 hours at 40,000 x g; SEDFIT with s and Mr as free fit parameters; Mr compared with the mass calculated from the sequence

T1 sequence (P46406 2-333): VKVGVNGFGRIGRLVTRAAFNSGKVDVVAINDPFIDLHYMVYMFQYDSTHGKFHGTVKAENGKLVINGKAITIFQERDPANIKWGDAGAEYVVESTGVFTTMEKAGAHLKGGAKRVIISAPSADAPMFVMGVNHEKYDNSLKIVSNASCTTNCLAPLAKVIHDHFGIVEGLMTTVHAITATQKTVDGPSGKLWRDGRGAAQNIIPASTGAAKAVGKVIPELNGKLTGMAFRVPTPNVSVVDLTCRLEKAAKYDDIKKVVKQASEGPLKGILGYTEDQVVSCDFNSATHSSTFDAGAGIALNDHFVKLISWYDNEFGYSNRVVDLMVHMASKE

Kd [1] [µM] | ratio between measured phLDH activity and the calculated free-diffusion activity; 40 μM NADH, rmGAPDH 100 to 240 μM of NADH binding sites; ratio rises from 1.3 to 2.0 fold [2] [fold] | ratio between measured phLDH activity and the calculated free-diffusion activity; rmGAPDH fixed at 200 μM NADH binding sites, NADH decreased from 40 to 10 μM; ratio rises from 1.7 to 2.28 fold [2] [fold] | ratio between measured phLDH activity and the calculated free-diffusion activity; 40 μM NADH, byGAPDH 240 to 480 μM of NADH binding sites; ratio rises from 3.5 to 6.1 fold [3] [fold] | ratio between measured phLDH activity and the calculated free-diffusion activity; byGAPDH fixed at 480 μM NADH binding sites, NADH decreased from 40 to 10 μM; ratio rises from 5.2 to 6.6 fold [3] [fold] | apparent KM of phLDH with rmGAPDH-NADH complex as substrate (630 μM pyruvate) [4] [µM] | apparent KM of phLDH with byGAPDH-NADH complex as substrate (630 μM pyruvate) [5] [µM] | Binder | binding result [6]
≥ 48.6 | – | – | – | – | – | – | B1 | –
– | 2 | 2.28 | 6.1 | 6.6 | 59.6 | 116 | B2 | binds
